Numbering of substitutions follows the chain as printed.

The values that follow come from patent US20200377593A1 (Innovent, published 2020).

The chains are these.
T1: mouse CD47-Fc (mouse, UniProt Q61735 19-140, limits assumed)
T1 construct: not shown: Fc part; not described
T1 sequence (looked up): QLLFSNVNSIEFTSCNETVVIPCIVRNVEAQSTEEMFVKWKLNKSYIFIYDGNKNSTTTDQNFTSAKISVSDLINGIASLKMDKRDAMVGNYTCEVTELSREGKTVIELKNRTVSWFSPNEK

B1: ADI-26660 (antibody, human IgG1, kappa, V domains shown)
VH: QVQLQESGPGLVKPSETLSLTCTVSGGSISSYYWSWIRQPPGKGLEWIGSIYYSGSTNYNPSLKSRVTISVDTSKNQFSLKLSSVTAADTAVYYCARKQKHFDIWGQGTMVTVSS
VL: DIQMTQSPSSVSASVGDRVTITCRASQGISSWLAWYQQKPGKAPKLLIYAASSLQSGVPSRFSGSGSGTDFTLTISSLQPEDFATYYCQQVNHHPWTFGGGTKVEIKR
notes: Full-length IgG1 kappa expressed in yeast, purified by Protein A
B2: ADI-26655 (antibody, human IgG1, kappa, V domains shown)
VH: B1 VH with S50Y, N58T, Q99K, K100R, H101F, I104L, M110T
VL: not shown
notes: as for B1
B3: ADI-29342 (antibody, human IgG1, kappa, V domains shown)
VH: QVQLQESGPGLVKPSETLSLTCTVSGGSIMHYYWSWIRQPPGKGLEWIGYIYYSGSTNYNPSLKSRVTISVDTSKNQFSLKLSSVTAADTAVYYCARGKTGSAAWGQGTLVTVSS
VL: B1 VL with S31R, V91T, N92V, H93S, H94F, W96I
notes: as for B1
B4: ADI-29347 (antibody, human IgG1, kappa, V domains shown)
VH: B3 VH with M30A, H31N, I51T, Y53F
VL: B1 VL with S31R, V91T, N92V, H93S, H94F, W96I
notes: as for B1
B5: ADI-29338 (antibody, human IgG1, kappa, V domains shown)
VH: B1 VH with S50T, N58R, K98G, Q99K, K100S, H101A, I104P, M110L
VL: DIQMTQSPSSVSASVGDRVTITCRASQGISRWLAWYQQKPGKAPKLLIYAASSLQSGVPSRFSGSGSGTDFTLTISSLQPEDFATYYCQQADLHPPLTFGGGTKVEIKR
notes: as for B1
B6: ADI-29345 (antibody, human IgG1, kappa, V domains shown)
VH: B3 VH with M30S, S56V, N58T, A103T
VL: B1 VL with S31R, V91T, N92V, H93S, H94F, W96I
notes: as for B1
B7: ADI-29350 (antibody, human IgG1, kappa, V domains shown)
VH: B3 VH with M30E, S56F, N58E, G98K, T100R, G101F, S102F, A103D, A104L, L110T
VL: not shown
notes: as for B1
B8: ADI-29337 Fab fragment (Fab, V domains shown)
VH: B3 VH with M30N, Y50A, N58R, T100S, G101A, S102F, A103D, A104P
VL: B5 VL
B9: ADI-26655 Fab fragment (Fab, V domains shown)
VH: B1 VH with S50Y, N58T, Q99K, K100R, H101F, I104L, M110T
VL: not shown
notes: also called ADI-26655 (Fab form)
B10: ADI-26660 Fab fragment (Fab, V domains shown)
VH: B1 VH
VL: B1 VL
notes: also called ADI-26660 (Fab form)
B11: ADI-29342 Fab fragment (Fab, V domains shown)
VH: B3 VH
VL: B1 VL with S31R, V91T, N92V, H93S, H94F, W96I
B12: ADI-29350 Fab fragment (Fab, V domains shown)
VH: B3 VH with M30E, S56F, N58E, G98K, T100R, G101F, S102F, A103D, A104L, L110T
VL: not shown
notes: also called ADI-29350 (Fab form)
B13: ADI-29347 Fab fragment (Fab, V domains shown)
VH: B3 VH with M30A, H31N, I51T, Y53F
VL: B1 VL with S31R, V91T, N92V, H93S, H94F, W96I
notes: also called ADI-29347 (Fab form)
B14: ADI-29345 Fab fragment (Fab, V domains shown)
VH: B3 VH with M30S, S56V, N58T, A103T
VL: B1 VL with S31R, V91T, N92V, H93S, H94F, W96I
B15: ADI-29337 (antibody, human IgG1, kappa, V domains shown)
VH: B3 VH with M30N, Y50A, N58R, T100S, G101A, S102F, A103D, A104P
VL: B5 VL
notes: as for B1
B16: Hu5F9 (antibody, V domains shown)
VH: QVQLVQSGAEVKKPGASVKVSCKASGYTFTNYNMHWVRQAPGQRLEWMGTIYPGNDDTSYNQKFKDRVTITADTSASTAYMELSSLRSEDTAVYYCARGGYRAMDYWGQGTLVTVSS
VL: DIVMTQSPLSLPVTPGEPASISCRSSQSIVYSNGNTYLGWYLQKPGQSPQLLIYKVSNRFSGVPDRFSGSGSGTDFTLKISRVEAEDVGVYYCFQGSHVPYTFGQGTKLEIKR

In the first test the target is T2, human CD47 overexpressed on CHO cells (human, UniProt Q08722 19-292).
T2 construct: CHO cells transfected with pCHO1.0 carrying human CD47 cDNA (Sino Biological); also called hCD47; CHO-hCD47 cells
Kind of test: flow cytometry on CHO-hCD47 cells, PE anti-human IgG, MFI curve.
The term EC50 denotes the concentration needed to bring the measured effect to its halfway point. For B1, the EC50 worked out at 5.74 nM.
For the molecule B2, a half-maximal effect (EC50) was put at 7.65 nM.
Molecule B3 showed an EC50 of 2.74 nM.
On the same count and under the same terms, with B4 the figure was 1.81 nM.
The same measure, in the same setting: the same measure for B5: 1.57 nM; for B6: 1.5 nM; for B7: 4.42 nM.

For a further test, the target named is T1, mouse CD47-Fc. Kind of test: BLI (ForteBio), antibody on AHQ tip, mouse CD47-Fc in solution, bivalent. For orientation: BLI is a label-free optical method that tracks binding on a fibre tip over time.
B1: the binding result is on record as “no binding (tested: 100 nM)”.
Regarding B2, the binding result is on record as “no binding (tested: 100 nM)”.
Turning to B3, the binding result is reported as “no binding (tested: 100 nM)”.
Turning to B4, the binding result is “no binding (tested: 100 nM)”.
In the case of B6, the binding result was “no binding (tested: 100 nM)”.
On the same count and under the same terms, the same measure for B7: “no binding (tested: 100 nM)”.

Another test addresses T3, human CD47-Fc (human, UniProt Q08722 19-139).
T3 construct: also called hCD47; not shown: Fc part
Kind of test: BLI (ForteBio), human CD47-Fc on AHQ tip, Fab in solution 100 nM, monovalent.
B8 displayed a Kd of 2.2 nM.
B9 returned a Kd of 46.3 nM.
For the molecule B10, the Kd is 130 nM.
The same measure, in the same setting: the same measure for B11: 11.7 nM; for B12: 5.04 nM; for B13: 11.3 nM.
As for B14, the Kd amounted to 2.89 nM.

In another test the target is T2, human CD47 overexpressed on CHO cells. Kind of test: flow cytometry competition on CHO-hCD47 cells against 200 nM mouse Fc-labeled SIRPα. A general note: Flow cytometry measures light scatter and fluorescence of single cells or particles in a stream.
As usually defined, the IC50 is the concentration at which inhibition is half-maximal. As to B1, the IC50 was determined as 16.7 nM.
B2: the half-maximal inhibitory concentration (IC50) is 38.1 nM.
In the case of B3, the 50% inhibitory concentration (IC50) was determined as 2.69 nM.
The molecule B4 came in with an IC50 of 2.16 nM.
In turn, B5 showed an IC50 of 3.14 nM.
Same read-out and setting: the same measure for B6: 2.75 nM; for B7: 10.5 nM.

The target in a further test is T3, human CD47-Fc. The test is described as follows: BLI (ForteBio), antibody on AHQ tip, human CD47-Fc in solution 100 nM, bivalent.
The molecule B1 yielded a Kd of 1.35 nM.
For the molecule B2, the Kd came to 0.849 nM.
Same read-out and setting: the same measure for B15: 0.404 nM; for B3: 0.486 nM.
On to B4, for which the Kd is 0.71 nM.
Consider B6, for which the Kd came to 0.403 nM.
B7 returned a Kd of 0.451 nM.

The next test has as its target T1, mouse CD47-Fc. Kind of test: BLI (ForteBio), antibody on AHQ tip, mouse CD47-Fc in solution 100 nM, bivalent.
Take B15: the Kd turned out to be 18.7 nM.
The same measure, in the same setting: with B16 the figure was 12.7 nM.

For a further test, the target named is T4, cynomolgus monkey CD47-Fc (cynomolgus monkey, UniProt A0A2K5X523 19-139).
T4 construct: not shown: Fc part; not described
The test is described as follows: BLI (ForteBio), antibody on AHQ tip, cynomolgus monkey CD47-Fc in solution 100 nM, bivalent.
Molecule B15 had a Kd of 0.554 nM.
In turn, B4 came in with a Kd of 0.562 nM.
